Legend:
[1] = target: T1, methylamine-treated C3 (C3met) (human, UniProt P01024 23-667; P01024 672-1663); assay: SPR (Biacore 2000), UspA protein amine-coupled on CM5 chip, C3met injected, steady state affinity model; UspA1^50-770 on the chip
T1 construct: mature; also called C3b-like molecule; [125I]-C3met

[2] = target: T2, Engelbreth-Holm-Swarm mouse sarcoma laminin (Sigma) (mouse, UniProt P19137 25-3083; P02469 22-1786; P02468 34-1607); assay: ELISA: 40 nM UspA1 50-770 coated, soluble laminin titrated in three-fold steps 0.03-60 µg/ml, rabbit anti-laminin pAb + HRP anti-rabbit pAb
T2 construct: also called soluble laminin

T1 sequence (P01024 23-667 limits assumed, chain 1 of 2): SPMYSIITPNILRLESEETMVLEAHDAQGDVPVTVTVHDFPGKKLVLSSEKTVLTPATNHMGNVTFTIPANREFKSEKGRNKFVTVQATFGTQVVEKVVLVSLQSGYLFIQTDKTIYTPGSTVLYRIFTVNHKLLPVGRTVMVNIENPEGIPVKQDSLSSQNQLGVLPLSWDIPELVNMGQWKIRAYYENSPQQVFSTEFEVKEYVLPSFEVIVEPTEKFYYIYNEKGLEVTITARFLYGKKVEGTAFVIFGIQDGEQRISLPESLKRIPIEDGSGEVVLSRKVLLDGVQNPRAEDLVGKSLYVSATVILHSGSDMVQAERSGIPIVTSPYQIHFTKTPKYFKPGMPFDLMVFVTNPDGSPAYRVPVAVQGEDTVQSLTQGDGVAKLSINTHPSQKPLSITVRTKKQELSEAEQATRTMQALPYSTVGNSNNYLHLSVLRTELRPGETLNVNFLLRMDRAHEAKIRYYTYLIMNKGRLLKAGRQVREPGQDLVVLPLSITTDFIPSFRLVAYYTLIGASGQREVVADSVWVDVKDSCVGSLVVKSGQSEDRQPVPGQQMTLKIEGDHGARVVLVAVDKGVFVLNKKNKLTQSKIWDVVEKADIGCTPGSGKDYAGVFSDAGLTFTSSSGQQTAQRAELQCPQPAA
T1 sequence (P01024 672-1663 limits assumed, chain 2 of 2): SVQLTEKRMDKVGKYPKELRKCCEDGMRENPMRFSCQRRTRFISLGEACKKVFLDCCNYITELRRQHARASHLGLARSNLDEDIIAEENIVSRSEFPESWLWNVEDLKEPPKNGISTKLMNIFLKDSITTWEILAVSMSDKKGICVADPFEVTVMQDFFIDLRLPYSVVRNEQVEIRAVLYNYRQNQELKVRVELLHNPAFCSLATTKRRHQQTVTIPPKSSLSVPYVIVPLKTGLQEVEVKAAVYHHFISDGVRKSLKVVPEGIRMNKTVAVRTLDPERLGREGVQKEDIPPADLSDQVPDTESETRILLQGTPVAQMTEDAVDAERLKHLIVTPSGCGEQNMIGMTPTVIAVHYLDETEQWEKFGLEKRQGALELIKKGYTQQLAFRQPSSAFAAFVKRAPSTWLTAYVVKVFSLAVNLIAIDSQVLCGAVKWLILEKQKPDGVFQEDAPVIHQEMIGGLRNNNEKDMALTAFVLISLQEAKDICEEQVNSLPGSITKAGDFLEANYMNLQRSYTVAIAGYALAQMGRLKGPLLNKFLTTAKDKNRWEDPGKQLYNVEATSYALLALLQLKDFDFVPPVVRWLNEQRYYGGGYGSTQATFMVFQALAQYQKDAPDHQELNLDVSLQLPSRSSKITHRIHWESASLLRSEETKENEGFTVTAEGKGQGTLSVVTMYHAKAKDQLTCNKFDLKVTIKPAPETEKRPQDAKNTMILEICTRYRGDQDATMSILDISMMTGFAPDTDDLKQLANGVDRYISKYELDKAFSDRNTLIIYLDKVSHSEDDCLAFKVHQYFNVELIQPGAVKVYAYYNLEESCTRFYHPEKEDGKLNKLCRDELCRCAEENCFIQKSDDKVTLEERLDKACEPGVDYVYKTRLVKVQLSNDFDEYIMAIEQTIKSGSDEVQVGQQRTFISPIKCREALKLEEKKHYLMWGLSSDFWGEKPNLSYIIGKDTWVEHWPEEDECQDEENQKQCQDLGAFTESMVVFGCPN

B1: recombinant UspA1^50-770 (M. catarrhalis Bc5) (other)
chain: KVGKATNKISGGDNNTANGTYLTIGGGDYNKTKGRYSTIGGGLFNEATNEYSTIGSGGYNKAKGRYSTIGGGGYNEATNQYSTIGGGDNNTAKGRYSTIGGGGYNEATIENSTVGGGGYNQAKGRNSTVAGGYNNEATGTDSTIAGGRKNQATGKGSFAAGIDNKANADNAVALGNKNTIEGENSVAIGSNNTVKKGQQNVFILGSNTDTTNAQNGSVLLGHNTAGKAATIVNSAEVGGLSLTGFAGASKTGNGTVSVGKKGKERQIVHVGAGEISDTSTDAVNGSQLHVLATVVAQNKADIKDLDDEVGLLGEEINSLEGEIFNNQDAIAKNQADIKTLESNVEEGLLDLSGRLLDQKADIDNNINNIYELAQQQDQHSSDIKTLKNNVEEGLLDLSGRLIDQKADLTKDIKALESNVEEGLLDLSGRLIDQKADIAKNQADIAQNQTDIQDLAAYNELQDAYAKQQTEAIDALNKASSANTDRIATAELGIAENKKDAQIAKAQANENKDGIAKNQADIQLHDKKITNLGILHSMVARAVGNNTQGVATNKADIAKNQADIANNIKNIYELAQQQDQHSSDIKTLAKVSAANTDRIAKNKAEADASFETLTKNQNTLIEQGEALVEQNKAINQELEGFAAHADVQDKQILQNQADITTNKTAIEQNINRTVANGFEIEKNKAGIATNKQELILQNDRLNRINETNNHQDQKIDQLGYAL
notes: also called UspA1^56-770 [sic]; UspA1^50-7"
Kd [1]: 14 µM | binding result [2]: binds

Source: patent US20130129763A1 (ARNE FORSGREN, published 2013)
